Source: patent publication US20200055939A1 (Genentech, published 2020)
Where a chain is given by its changes, count along the chain named.

T1: MICA*008 on MEL-JUSO cells (human, UniProt Q29983 24-317)
T1 chain: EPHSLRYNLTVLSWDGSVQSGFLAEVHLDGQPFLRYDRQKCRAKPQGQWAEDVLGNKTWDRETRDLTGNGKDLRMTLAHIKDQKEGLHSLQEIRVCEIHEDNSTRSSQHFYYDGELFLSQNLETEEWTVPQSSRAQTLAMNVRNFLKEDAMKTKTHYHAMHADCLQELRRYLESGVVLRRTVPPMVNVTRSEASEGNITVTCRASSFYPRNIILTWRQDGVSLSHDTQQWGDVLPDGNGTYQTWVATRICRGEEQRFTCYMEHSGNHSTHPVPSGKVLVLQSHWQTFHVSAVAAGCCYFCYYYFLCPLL

T2: MICA004.His (human MICA*004 alpha 3 domain, His tagged) (human)
T2 construct: also called huMICA*004 alpha 3-his
T2 chain: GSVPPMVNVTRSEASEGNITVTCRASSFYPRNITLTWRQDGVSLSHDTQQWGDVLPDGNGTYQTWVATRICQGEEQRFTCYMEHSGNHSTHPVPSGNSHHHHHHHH

T3: MICB005.His (human MICB*005 alpha 3 domain, His tagged) (human)
T3 construct: also called huMICB*005 alpha 3-his
T3 chain: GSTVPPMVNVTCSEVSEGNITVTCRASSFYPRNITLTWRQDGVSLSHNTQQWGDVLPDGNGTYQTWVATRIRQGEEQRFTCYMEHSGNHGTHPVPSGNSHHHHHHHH

T4: MICA008.His (human MICA*008 alpha 3 domain, His tagged) (human)
T4 construct: Also used for FPOP (expressed in CHO); also called huMICA*008 alpha 3-his; MICA*008 a3
T4 chain: T3 chain with C12R, V15A, T35I, N48D, R72C, Q73R, G90S

T5: MICA002.His (human MICA*002 alpha 3 domain, His tagged) (human)
T5 construct: also called huMICA*002 alpha 3-his
T5 chain: T3 chain with C12R, V15A, S28G, R32W, T37S, N48D, R72C, G90S

T6: MICA*008 on MEL-JUSO cells (human, UniProt Q29983 24-317)
T6 chain: T1 chain

T7: MICA.008.a3.T204-S297.H248N.mIgG2a.Glyco15 (human; mouse, UniProt Q29983 204-297, engineered N-linked glycosylation site H248N)
T7 construct: not shown: murine IgG2a Fc
T7 chain: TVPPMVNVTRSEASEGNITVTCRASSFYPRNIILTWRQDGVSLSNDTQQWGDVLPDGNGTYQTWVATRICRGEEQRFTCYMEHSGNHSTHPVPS

T8: MICA.008.a3.T204-S297.C-terminal insert of N298.G299.S300.mIgG2a.Glyco17 (human; mouse, UniProt Q29983 204-297, engineered N-linked glycosylation site at inserted N298)
T8 construct: not shown: murine IgG2a Fc
T8 chain: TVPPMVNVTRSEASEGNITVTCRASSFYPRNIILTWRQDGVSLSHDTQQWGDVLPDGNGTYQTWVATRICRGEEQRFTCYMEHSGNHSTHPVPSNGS

T9: MICA.008.a3.R202-S297.R202N mIgG2a.Glyco11 (human; mouse, UniProt Q29983 203-297, engineered N-linked glycosylation site R202N)
T9 construct: not shown: murine IgG2a Fc
T9 chain: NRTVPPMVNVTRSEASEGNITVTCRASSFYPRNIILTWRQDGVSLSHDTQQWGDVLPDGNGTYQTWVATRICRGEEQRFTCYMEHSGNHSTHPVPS

T10: MICA.008.a3.T204-S297.E215N.mIgG2a.Glyco12 (human; mouse, UniProt Q29983 204-297, engineered N-linked glycosylation site E215N)
T10 construct: not shown: murine IgG2a Fc
T10 chain: T7 chain with E12N, N45H

T11: MICA.008.a3.T204-S297.I236T.mIgG2a.Glyco13 (human; mouse, UniProt Q29983 204-297, engineered N-linked glycosylation site created by I236T)
T11 construct: not shown: murine IgG2a Fc
T11 chain: T7 chain with I33T, N45H

T12: huMICA*004 alpha 3-his (human)
T12 construct: whole construct entry: GS, alpha 3 domain, GNS, His8; also called MICA004.His; MICA*004 alpha3 construct
T12 chain: T2 chain

T13: huMICA*002 alpha 3-his (human)
T13 construct: whole construct entry: GS, alpha 3 domain, GNS, His8; also called MICA002.His; MICA*002 alpha3 construct
T13 chain: T3 chain with C12R, V15A, S28G, R32W, T37S, N48D, R72C, G90S

T14: huMICA*008 alpha 3-his (human)
T14 construct: whole construct entry: GS, alpha 3 domain (Thr204-Ser297), GNS, His8; also the construct of the FPOP experiment; also called MICA008.His; MICA*008 alpha3 construct
T14 chain: T3 chain with C12R, V15A, T35I, N48D, R72C, Q73R, G90S

T15: huMICB*005 alpha 3-his (human)
T15 construct: whole construct entry: GS, alpha 3 domain, GNS, His8; also called MICB005.His; MICB*005 alpha3 construct
T15 chain: T3 chain

B1: 3C9.10 (antibody, V domains shown)
VH: QVQLKESGPGLVAPSQSLSITCTVSGFSLTGSGVNWVRQPPGKGLEWLGMIWGDGNTDYNSALKSRLSISKDNSKSQIFLKMNSLQTDDTARYYCARGAYYGKRWYFDVWGAGTTVTVSS
VL: DIQMTQTTSSLSASLGDRVTISCSASQGISNYLNWYQQKPDGTVKLLIYYTSSLHSGVPSRFSGSGSGTDYSLTISNLEPEDIATYYCQQYSKLPPTFGGGTKVEIK
notes: Mouse hybridoma antibody; constant regions differ by assay (hybridoma mouse IgG, recombinant human IgG1 or mouse IgG2a)
B2: 9C9.5.6 (antibody, V domains shown)
VH: B1 VH with T30N, S32Q, N56S, K75R, I78V, Y100H
VL: B1 VL with G28N, S30N, D41H, H55P, T85S
notes: Mouse hybridoma antibody; constant regions differ by assay
B3: 6F8.7 (antibody, V domains shown)
VH: DVQLQGSGPGLVKPSQSLSLTCSVTGYSITNDYYWNWIRQFPGNKLEWMGFISFGGSNNYNPSLKNRISITRDTSKNQFFLKLSSVTTEDTATYYCARYDGRGAWFAYWAQGTLVTVSA
VL: DIQMTQSPASLSASVGETVTITCRASGNIHNYLAWYQQKQGKSPQLLVYDAITLADGVPSRFSGSGSGTQYSLKINSLQPEDFGNYYCQHFWSFPLTFGAGTKVEIK
notes: as for B2
B4: 6E1.1.12 (antibody, V domains shown)
VH: QGQMQQSGAELVKPGASVKLSCKTSGFTFSDNYISWLKQKPGQSLEWIAWIYAGTGGSSYNQKFRDKAQLTVDTSSRTAYMQLSSLTTEDSAIYYCARHDYYGTSGAWFAYWGRGTLVTVSA
VL: DVLMTQTPLSLPVSLGDQASISCRSSQHIVHSNENTYLEWYLQKPGQSPKLLIYKVSNRFSGVPDRFSGSGSGTDFTLKISRVEAEDLGVYYCFQGSHVPWTFGGGTKVEIK
notes: mouse variable domains
B5: 15F11v2 (antibody, IgG1, V domains shown)
VH: EIQLVQSGAEVKKPGASVKVSCKPSGYAFTSNNIYWVRQAPGQGLEWIGYIDPYIGRIIYNQQFKDRATLTVDKSTSTAYLELSSLRSEDTAVYYCSRSGERSNFDYWGQGTLVTVSS
VL: EIVLTQSPATLSLSPGERATLSCSASSSISSNYLHWYQQKPGQAPRLLIYRTSNLASGIPARFSGSGSGTDFTLTISSLEPEDFAVYYCQQGGSLPLTFGQGTKVEIK
notes: humanized variant of 15F11
B6: 15F11v5 (antibody, IgG1, V domains shown)
VH: B5 VH with A16S, L81M
VL: B5 VL
notes: humanized variant of 15F11
B7: 15F11v3 (antibody, IgG1, V domains shown)
VH: B5 VH with I2V, P24A, A68V, L70I, V72A, K74T
VL: B5 VL with A44S, I59V, F72Y
notes: humanized variant of 15F11
B8: 15F11v4 (antibody, IgG1, V domains shown)
VH: B5 VH
VL: B5 VL with A44S, I59V, F72Y
notes: humanized variant of 15F11
B9: 15F11v1 (antibody, IgG1, V domains shown)
VH: B5 VH with I2V, P24A, A68V, L70I, V72A, K74T
VL: B5 VL
notes: humanized variant of 15F11
B10: 15F11v6 (antibody, IgG1, V domains shown)
VH: B5 VH with A16S, L81M
VL: B5 VL with A44S, I59V, F72Y
notes: humanized variant of 15F11
B11: 13A9v5 (antibody, IgG1, V domains shown)
VH: EVQLVQSGAEVKKPGSSVKVSCKASGYAFTNYLIEWVRQAPGQGLEWIGAINPGSGATNYNEKFKDRATLTADKSTNTAYMELSSLRSEDTAVYFCARFLGNYFDNWGQGTLVTVSS
VL: DIQMTQSPSSLSASVGDRVTITCRASGNIHSYLAWYQQKPGKAPKLLIYYAETLADGVPSRFSGSGSGTDFTLTISSLQPEDFATYYCQQFWTTPYTFGQGTKVEIK
notes: humanized variant of 13A9
B12: 13A9v6 (antibody, IgG1, V domains shown)
VH: B11 VH
VL: B11 VL with A43S, I48V, F71Y, Y87F
notes: humanized variant of 13A9

These binders were tested against MICA*004 on HCC1534 cells (human, UniProt Q29983 24-383) (assay: cell-based or functional assay).
For % Inhibition in this document: test concentration or dose not given here.

Row | % max inhibition of shedding [%] | EC50 of shedding inhibition [µg/mL] | Binder
1 | 24 | 50 | B1
2 | 44 | 3.18 | B2
3 | 70 | 0.251 | B3

Molecular target: T1, MICA*008 on MEL-JUSO cells
Assay: cell-based or functional assay

Row | % max inhibition of shedding [%] | EC50 of shedding inhibition [µg/mL] | Binder
4 | < 10 | – | B1
5 | < 10 | – | B2
6 | 47.5 | 0.163 | B3

Molecular target: T2, MICA004.His (human MICA*004 alpha 3 …)
Assay: SPR, antibody captured;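 also: SPR with antibody held by surface-bound anti-Fc while His-tagged alpha three domains flow over, Kd derived by fitting a one-to-one binding model to sensograms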
Experimental: (§1) The binding kinetics of the anti-MICA/B antibodies were measured using surface plasmon resonance (SPR) on a Biacore T200 instrument (GE Healthcare). Anti-murine Fc or anti-human Fc (GE Healthcare) was immobilized on a CM5 sensor chip via amine-based coupling using manufacturer provided protocol. Anti-MICA/B antibody was captured by the anti- Fc and the MICA/B alleles were passed over. Antibody binding was measured to human MICA 002, 004, 008 and MICB 005 alpha 3 domains (His tagged, in-house). Sensograms for binding of MICA/B were recorded using an injection time of 2-3 minutes with a flow rate of 30 ml/min, at a temperature of 25° C., and with a running buffer of 10mM HEPES, pH 7.4, 150 mM NaCl, and 0.005% Tween 20. After injection, disassociation of the alpha 3 domain from the antibody was monitored for 10 minutes in running buffer. The surface was regenerated between binding cycles with a 60 ul injection of 10 mM Glycine HCl pH 1.7. […] The data was analyzed using a 1:1 binding model. Sensograms of MICA alleles binding to captured anti-MICA antibody were used to calculate the dissociation constant (Kd).

Row | Kd [nM] | Binder
7 | 6.2 | B3

Molecular target: T3, MICB005.His (human MICB*005 alpha 3 …)
Assay: SPR, antibody captured;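 also: SPR with antibody held by surface-bound anti-Fc while His-tagged alpha three domains flow over, Kd derived by fitting a one-to-one binding model to sensograms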
Experimental: as §1

Row | Kd [nM] | Binder
8 | 45 | B1
9 | 11 | B2
10 | 14.5 | B3

Molecular target: T4, MICA008.His (human MICA*008 alpha 3 …)
Assay: SPR, antibody captured;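 also: SPR with antibody held by surface-bound anti-Fc while His-tagged alpha three domains flow over, Kd derived by fitting a one-to-one binding model to sensograms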
Experimental: as §1

Row | Kd [nM] | Binder
11 | 8.4 | B3

Molecular target: T5, MICA002.His (human MICA*002 alpha 3 …)
Assay: SPR, antibody captured;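 also: SPR with antibody held by surface-bound anti-Fc while His-tagged alpha three domains flow over, Kd derived by fitting a one-to-one binding model to sensograms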
Experimental: as §1

Row | Kd [nM] | Binder
12 | 2.4 | B3

The binders below were run against MICB*005 on HCC1534 cells (human) (assay: cell-based or functional assay).

Row | % Inhibition [%] | Binder
13 | 58 | B4
14 | 35 | B5
15 | -35 | B6
16 | -49 | B7
17 | 44 | B8
18 | 43 | B9
19 | 59 | B10
20 | 63 | B11
21 | 6 | B12

Molecular target: T6, MICA*008 on MEL-JUSO cells
Assay: cell-based or functional assay

Row | % Inhibition [%] | Binder
22 | 31 | B4
23 | 62 | B5
24 | 62 | B6
25 | 50 | B7
26 | -19 | B8
27 | 4 | B9
28 | -8 | B10
29 | 4 | B11
30 | 8 | B12

Molecular target: MICA*004 on HCC1534 cells (human, UniProt Q29983 24-383)
Assay: cell-based or functional assay
Remark: another data set of the same source

Row | % Inhibition [%] | Binder
31 | 34 | B4
32 | 43 | B5
33 | 46 | B6
34 | 39 | B7
35 | -34 | B8
36 | 3 | B9
37 | -14 | B10
38 | 9 | B11
39 | 16 | B12

Molecular target: T7, MICA.008.a3.T204-S297.H248N.mIgG2a.Glyco …
Assay: ELISA, coated variant;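 also: ELISA with plates coated at 2 ug/ml with MICA*008 alpha 3 glycosylation variants as murine IgG2a Fc fusions, antibody binding detected by HRP anti-human IgG Fc and TMB absorbance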

Row | binding result | Binder
40 | binds | B3

Molecular target: T8, MICA.008.a3.T204-S297.C-terminal insert …
Assay: ELISA, coated variant;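 also: ELISA with plates coated at 2 ug/ml with MICA*008 alpha 3 glycosylation variants as murine IgG2a Fc fusions, antibody binding detected by HRP anti-human IgG Fc and TMB absorbance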

Row | binding result | Binder
41 | binds | B3

Molecular target: T9, MICA.008.a3.R202-S297.R202N …
Assay: ELISA, coated variant;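 also: ELISA with plates coated at 2 ug/ml with MICA*008 alpha 3 glycosylation variants as murine IgG2a Fc fusions, antibody binding detected by HRP anti-human IgG Fc and TMB absorbance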

Row | binding result | Binder
42 | binds | B3

Molecular target: T10, MICA.008.a3.T204-S297.E215N.mIgG2a.Glyco …
Assay: ELISA, coated variant;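 also: ELISA with plates coated at 2 ug/ml with MICA*008 alpha 3 glycosylation variants as murine IgG2a Fc fusions, antibody binding detected by HRP anti-human IgG Fc and TMB absorbance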

Row | binding result | Binder
43 | binds | B3

Molecular target: T11, MICA.008.a3.T204-S297.I236T.mIgG2a.Glyco …
Assay: ELISA, coated variant

Row | binding result | Binder
44 | binds | B3

Molecular target: T12, huMICA*004 alpha 3-his
Assay: SPR, Biacore 8K, antibody on Protein A chip

Row | Kd [nM] | Binder
45 | 3.95 | B4
46 | 2.74 | B5
47 | 3.11 | B6
48 | 5.7 | B7
49 | 2.58 | B8
50 | 5.96 | B9
51 | 2.91 | B10
52 | 5.52 | B11
53 | 3.77 | B12

Molecular target: T13, huMICA*002 alpha 3-his
Assay: SPR, Biacore 8K, antibody on Protein A chip

Row | Kd [nM] | Binder
54 | 1.49 | B4
55 | 5.05 | B5
56 | 6.05 | B6
57 | 12.7 | B7
58 | 4.75 | B8
59 | 12.8 | B9
60 | 5.47 | B10
61 | 4.27 | B11
62 | 3.94 | B12

Molecular target: T14, huMICA*008 alpha 3-his
Assay: SPR, Biacore 8K, antibody on Protein A chip

Row | Kd [nM] | Binder
63 | 3.72 | B4
64 | 3.17 | B5
65 | 3.2 | B6
66 | 5.56 | B7
67 | 2.58 | B8
68 | 6.52 | B9
69 | 2.94 | B10
70 | 3.68 | B11
71 | 2.8 | B12

Molecular target: T15, huMICB*005 alpha 3-his
Assay: SPR, Biacore 8K, antibody on Protein A chip

Row | Kd [nM] | Binder
72 | 2.96 | B4
73 | 6.71 | B5
74 | 7.8 | B6
75 | 14.1 | B7
76 | 5.72 | B8
77 | 16.1 | B9
78 | 6.62 | B10
79 | 3.17 | B11
80 | 2.45 | B12
